These results are taken from the supplement of paper PMC9170038.

Series [1] has as its system MS2 coat protein. The series is described as follows: apparent KD of MS2 coat protein, switch ON state; designed switch direction (-1 OFF switch, 1 ON switch): -1; higher = weaker reporter binding. As to conditions: FMN input: 0 or 200 uM; Eterna round: R93 (includes R88 designs). An outline of the steps:
(§1)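 Illumina sequencing clusters were used for on-chip transcription of designed RNA switches. Titration with SNAP-549-labelled MS2 coat protein followed, in twofold steps from 0.7 or 1.5 nM to 3 µM in 100 mM Tris-HCl pH 7.5, 80 mM KCl, 4 mM MgCl2, without or with constant ligand. Apparent KD is each design's median of fits to normalised cluster binding curves.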

Series [2] has as its system MS2 coat protein. The series is described as follows: apparent KD of MS2 coat protein, switch OFF state (with FMN for OFF switches, without FMN for ON switches); designed switch direction (-1 OFF switch, 1 ON switch): -1; higher = weaker reporter binding. As to conditions: FMN input: 0 or 200 uM; Eterna round: R93 (includes R88 designs). In outline: as §1

Turning to “GUGUACAGAGGAUAUACAUGAGCAUGGAAUCAUGCAGGAUCACAUGAGGAUCACCCAUGUAGAAGGCUGUACAC [LROPPY Exclusion 2 - v06_mod Brourd]”, the “apparent KD of MS2 coat protein” value stood at 66.9 nM with MS2 coat protein [1] and 39.8 nM with MS2 coat protein [2].

Take “UACGUAUGAGGAUAUACAAACAGAAAAAUCAGACAUAACUGACAUGAGGAUCACCCAUGUAGAAGGCAUAUACA [JR_Exc002_Sub904]”: the entries for the “apparent KD of MS2 coat protein” value in the series on MS2 coat protein [1] and with MS2 coat protein [2] were 25.3 nM and 17.4 nM, respectively.

Turning to “AAAAAUUGAGGAUAUACGAACAUGUCGAAAGACGUGAAGGGACAUGAGGAUCACCCAUGUAGAAGGCGAAAGAA [Mat - Exclusion 2 - JL mod - D67]”, the “apparent KD of MS2 coat protein” value amounted to 33.6 nM in the series on MS2 coat protein [1] and 18.2 nM in the series on MS2 coat protein [2].

As for “AACAGUACAGGAUAUACAUGAGGAUCACCCAUGUGAGAAUUAAAAGGCGUACCUAAAUGUAGAAGGGUACUGGA [JL Maslow Revisted mod 19]”, the “apparent KD of MS2 coat protein” value in the series on MS2 coat protein [1] worked out at 56.3 nM; in the series on MS2 coat protein [2] it was 61.8 nM.

“AAUAUGUUAGGAUAUGCGAAGUCAGGACACACACUGACGAAGCAGAAGGAACAUGAGGAUCACCCAUGUAAUAA [JR_Exclusion-4 65% 6]”: the “apparent KD of MS2 coat protein” value with MS2 coat protein [1] turned out to be 27.6 nM; in the series with MS2 coat protein [2], 26.6 nM.

On to “AAGUGGGCAGGAUAUACAUGAGGAUCACCCAUGUAAAGAAAAGAAAGAUCCGAAGAAAGUAGAAGGGCCUGCAA [Mod 1 of Ex3 sub 3, by Tesla's Dusciple Round 1]”, for which the “apparent KD of MS2 coat protein” value stood at 144 nM in the series on MS2 coat protein [1] and 137 nM with MS2 coat protein [2].

As to “AAGUACGAAGGAUAUACAUGGAUAUACAUUCAUGUGGACCUACAUGAGGAUCACCCAUGUAGAAGGUCGUAAUA [Mat - Same state - Mayanna Mod - D145]”, the figures for the “apparent KD of MS2 coat protein” value with MS2 coat protein [1] and in the series with MS2 coat protein [2] were 24.6 nM and 12.8 nM, respectively.

With “AAGACUAGAGGAUAUACAUGAGGAUCACCCAUGUAACUGUCAGGAAACUGACGGAGAUGUAGAAGGCUAGUCAA [Mat - Exclusion 3 - Neo mod - D75]”, the “apparent KD of MS2 coat protein” value with MS2 coat protein [1] is 16.7 nM; in the series on MS2 coat protein [2], 38.4 nM.

Take “AAAAACCUAGGAUAUACAUGAGGAUCACCCAUGUAAAGAAACAACAAGGGAAACACACGUAGAAGGAGGAAGAA [JR_Exc003_Sub1204]”: the “apparent KD of MS2 coat protein” value in the series on MS2 coat protein [1] stood at 24.5 nM; in the series on MS2 coat protein [2] it was 74.8 nM.

As to “AACAGGACAGGAUAUACAUGAGGAUCACCCAUGUGAGAAUUCAGUAGAUUGCCACAGAGUAGAAGGGUCCUGGA [Ruby 100]”, the “apparent KD of MS2 coat protein” value in the series on MS2 coat protein [1] worked out at 58.5 nM; in the series with MS2 coat protein [2], 102 nM.

Turning to “AAGAAGUGAGGAUAUCCAAAAGAAAAGAAAAGAAAAGAAAAGGAGAAGGCACAUGAGGAUCACCCAUGUAAGAA [Ankhkaenre Psamtik III]”, the “apparent KD of MS2 coat protein” value is 26.3 nM in the series with MS2 coat protein [1] and 28.4 nM with MS2 coat protein [2].

Take “AAAAAGGCAGGAUAUACAUGAGGAUCACCCAUGUUAAAAAAAAAAAAAAAAAAAAAGUGUAGAAGGGCCAAAAA [Default title]”: the “apparent KD of MS2 coat protein” value in the series with MS2 coat protein [1] amounted to 37.4 nM; with MS2 coat protein [2] it was 47.6 nM.

For “AAAAGGAUAGGAUAUACAUGAGGAUCACCCAUGUGAAUAAAUAAAAGAAAUAAAGAAAGUAGAAGGGUCAAGAA”, the “apparent KD of MS2 coat protein” value in the series with MS2 coat protein [1] came to 25.8 nM; in the series on MS2 coat protein [2], 22 nM.

Take “GAAUGAUGAGGAUAUACAUGAGGAUCACCCAUGUGUAAAAAUAAAUACACAAAAGAAAGUAGAAGGCAUCAAAG [Mat - Exclusion 3 - Mayanna mod - D120]”: the “apparent KD of MS2 coat protein” value with MS2 coat protein [1] turned out to be 22.9 nM; in the series with MS2 coat protein [2] it was 99 nM.

Turning to “GAAAAGUGAGGAUAUUCGGAAGGGAAAGCGCAAACCCAACCGAAGAAGGCACAUGAGGAUCACCCAUGUGGAAG [Mat - Exaclusion 4 - Eli mod - D58]”, the “apparent KD of MS2 coat protein” value was 23.6 nM with MS2 coat protein [1] and 28.7 nM in the series with MS2 coat protein [2].

As to “AAAAAAGGAGGAUAUACGUACAUGUCGAAAGACGUGAAGGGACAUGAGGAUCACCCAUGUAGAAGGCUUAAAAA [Mat - Exclusion 2 - JL mod - D70]”, the “apparent KD of MS2 coat protein” value in the series on MS2 coat protein [1] stood at 37.2 nM; with MS2 coat protein [2], 22.9 nM.

With “AGCAAACAUGAGGAUCACCCAUGUGAGGAUAUGAACGAAAAUAAAUAAAAAUAAAAGUUCAGAAGGUACGAGCA [66%, Wbt, 27]”, the “apparent KD of MS2 coat protein” value in the series with MS2 coat protein [1] is 27.7 nM; with MS2 coat protein [2], 31.9 nM.

Regarding “AAGAAGCAAGGAUAUACAUGAGGAUCACCCAUGUAAAAGAAAGAAAAGGGAAAGAAAAGUAGAAGGUGCAAAGA [Ruby 69]”, the “apparent KD of MS2 coat protein” value was 43.6 nM in the series on MS2 coat protein [1] and 72.8 nM in the series with MS2 coat protein [2].

As to “AAAAAGGGAGGAUAUACAUGAGGAUCACCCAUGUAAAACAAAAAAACAAAAAAAAAAAGUAGAAGGCCCAAAAA [Default title]”, the “apparent KD of MS2 coat protein” value with MS2 coat protein [1] stood at 30 nM; with MS2 coat protein [2], 24.6 nM.

Regarding “GGGUCACAUGAGGAUCACCCAUGUAAGGAUAUGCUAGGGAUGGAAGCCAGGCCGCAACGCAGAAGGUACUAAAG [Janelle Amethyst 18 Mod 14 - Jieux - Exclusion 1]”, the “apparent KD of MS2 coat protein” value with MS2 coat protein [1] is 55.1 nM; with MS2 coat protein [2], 54.7 nM.

Take “AGUAUGCGAGGAUAUACAUGAGGAUCACCCAUGUGAGAGAUAUGAGUGAGAAAGACAAGUAGAAGGCGCGUACA [JL Lego Mod 26]”: the “apparent KD of MS2 coat protein” value in the series on MS2 coat protein [1] stood at 99.8 nM; in the series on MS2 coat protein [2], 11.4 nM.

In the case of “CCCAUGUCAGGAUAUCAGUAGUAAAAAAAAAAAAUUACUACUGAGAAGGGACAUGAGGAUCACCCAUGUACCUU [EX4 319: Super Stable 19]”, the “apparent KD of MS2 coat protein” value in the series with MS2 coat protein [1] came to 72.1 nM; in the series with MS2 coat protein [2] it was 68.1 nM.

Consider “AGGAAACAUGAGGAUCACCCAUGUGAGGAUAUCAGAAAGAAAAGAAAAGAAAGAAGAAUGAGAAGGCACAAGAA [Hotepsekhemwy]”, for which the results for the “apparent KD of MS2 coat protein” value with MS2 coat protein [1] and in the series with MS2 coat protein [2] were 26 nM and 40.8 nM, respectively.

Consider “CCUAUGUCAGGAUAUCAGUAGUAAAAAAAAAAAAUUACUACUGAGAAGGGACAUGAGGAUCACCCAUGUUCAAA [EX4 313: Super Stable 13]”, for which the “apparent KD of MS2 coat protein” value in the series with MS2 coat protein [1] was 42.4 nM; in the series on MS2 coat protein [2], 66.4 nM.

Regarding “AACAUGUCAGGAUAUGCAAAAGGAGACUGACACGCGAGUGAGCAGAAGGGACAUGAGGAUCACCCAUGUUCAAA [Mat - Mod of Meechl]”, the “apparent KD of MS2 coat protein” value in the series with MS2 coat protein [1] turned out to be 20.9 nM; in the series with MS2 coat protein [2], 15.6 nM.

Turning to “CUCAAGUAAGGAUAUCUAAGAAAAGAAGAGAAAGAAAAGAAAGAGAAGGUACAUGAGGAUCACCCAUGUAAGAA [EteRNA is fun!]”, the results for the “apparent KD of MS2 coat protein” value in the series on MS2 coat protein [1] and in the series with MS2 coat protein [2] were 34.4 nM and 29.9 nM, respectively.

Regarding “ACUAACGGAGGAUAUACUAACAAACCUCAAACAUACAUCAAACAUGAGGAUCACCCAUGUAGAAGGCCGAAACU [JR_Exc002_Sub004]”, the “apparent KD of MS2 coat protein” value with MS2 coat protein [1] came out at 34.4 nM; with MS2 coat protein [2], 52.8 nM.

As for “AACAUACAUGAGGAUCACCCAUGUCAGGAUAUGCCGGGUUAGAGCCAACUGAAAAACCGUAGAAGGGACGAAAA [Bilbo Confounded 8 - Jieux - Exclusion 1]”, the “apparent KD of MS2 coat protein” value was found to be 66.9 nM with MS2 coat protein [1] and 79.5 nM in the series on MS2 coat protein [2].

Take “AAGGUACGAGGAUAUACAUAGAUACAGACACAUGUACAUGUACAUGAGGAUCACCCAUGUAGAAGGCGUAUAUG [Mat - Same state - Mayanna Mod - D109]”: the “apparent KD of MS2 coat protein” value worked out at 67.5 nM with MS2 coat protein [1] and 73.9 nM in the series with MS2 coat protein [2].

Turning to “AAGAACUGAGGAUAUACAUGAAAGAAAGAAAAGAAAAGAAAACAUGAGGAUCACCCAUGUAGAAGGCAGAAGAA [EteRNA is fun!]”, the “apparent KD of MS2 coat protein” value with MS2 coat protein [1] stood at 16.9 nM; in the series on MS2 coat protein [2], 14.4 nM.

Turning to “AGCAGUACAGGAUAUACAUGAGGAUCACCCAUGUGAAAAAAAAGUGGCGUACCACAAAGUAGAAGGGUACUGCA [Mat - Exclusion 3 - JL mod - D32]”, the “apparent KD of MS2 coat protein” value came out at 35.4 nM with MS2 coat protein [1] and 108 nM in the series on MS2 coat protein [2].

“AAGAAGUCAGGAUAUGCUUGUCGUCACAAAAGUGAUGACGAGCAGAAGGGACAUGAGGAUCACCCAUGUAAAGA [JL eternac mod 1]”: the “apparent KD of MS2 coat protein” value was determined as 42.1 nM in the series with MS2 coat protein [1] and 41.9 nM in the series on MS2 coat protein [2].

On to “AAAUGACAUGAGGAUCACCCAUGUCAGGAUAUGACUUGAAAAAUAAAAUAAAAACAUGUCAGAAGGGACAUGAA [Design 47: Sub-opt E]”, for which the results for the “apparent KD of MS2 coat protein” value with MS2 coat protein [1] and with MS2 coat protein [2] were 16.5 nM and 17.6 nM, respectively.

Consider “AUAAGUCGAGGAUAUACAAAAUGCUAGCGAAAGCUAGCAUAACAUGAGGAUCACCCAUGUAGAAGGCGACAAUA [Tetraloop hairpin BlockHead Variation2]”, for which the “apparent KD of MS2 coat protein” value came to 21.7 nM in the series with MS2 coat protein [1] and 21.3 nM in the series with MS2 coat protein [2].

Regarding “AAAGGACGAGGAUAUACAUGAGGAUCACCCAUGUAAAAAACAUAGUCAAAGGGCUUGUGUAGAAGGCGUCCAAA [Meechl Ex3 2 R2 v11]”, the results for the “apparent KD of MS2 coat protein” value with MS2 coat protein [1] and in the series on MS2 coat protein [2] were 50.2 nM and 229 nM, respectively.

For “AACAGUACAGGAUAUACAUGAGGAUCACCCAUGUGAAAAUUAAGUGGAGAACCACAAUGUAGAAGGGUACUGGA [Mat - Exclusion 3 - Eli mod - D48]”, the figures for the “apparent KD of MS2 coat protein” value in the series on MS2 coat protein [1] and in the series with MS2 coat protein [2] were 133 nM and 57.3 nM, respectively.

“AAUAAGUCAGGAUAUGCAAAUAAUAAAUAAAAUAAAAUAAAGCAGAAGGGACAUGAGGAUCACCCAUGUAAAUA [Opal 40]”: the “apparent KD of MS2 coat protein” value in the series with MS2 coat protein [1] amounted to 47.9 nM; with MS2 coat protein [2] it was 41 nM.

“AAAUGUUGAGGAUAUACAUGAGGAUCACCCAUGUGUAAAAAUAAAUACACAAAAGAAAGUAGAAGGCAACAAAA [Ex 3 May 11]”: the “apparent KD of MS2 coat protein” value in the series with MS2 coat protein [1] stood at 28.7 nM; with MS2 coat protein [2] it was 79.7 nM.

On to “ACCUCACAUGAGGAUCACCCAUGUUAGGAUAUGCCCGGCAGGUUCUGACCUGCCUAAAGCAGAAGGAACGUGCG [Beusus]”, for which the “apparent KD of MS2 coat protein” value in the series with MS2 coat protein [1] came to 17.4 nM; with MS2 coat protein [2], 57.9 nM.
